Source: the supplement of paper PMC5998384

Experiments:
HeLa Kyoto [1] = experiment: solubility in G1/S (NP-40 vs SDS abundance) (log2 ratio); higher = more soluble; details: cell cycle stage: G1/S
HeLa Kyoto [2] = experiment: melting temperature (median over replicates), in situ; higher = more thermally stable
HeLa Kyoto [3] = experiment: solubility change mitosis vs G1/S (difference of NP-40 vs SDS log2 ratios) (log2 ratio difference); higher = more soluble in mitosis
HeLa Kyoto [4] = experiment: thermal stability score vs G1/S (z-score of summed log2 fold changes over temperatures); higher = more thermally stable than in G1/S
[5] = cell cycle stage: early G1 (4.5 h after nocodazole release)
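For melting temperature (median over replicates), in situ in this document: HeLa Kyoto cells synchronized by double thymidine or nocodazole block, proteins quantified by TMT10plex mass spectrometry, three independent biological replicates.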
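For solubility change mitosis vs G1/S (difference of NP-40 vs SDS log2 ratios) in this document: synchronized HeLa Kyoto cells (double thymidine block for G1/S, nocodazole release for mitosis), protein amounts in NP-40 versus SDS lysates quantified by mass spectrometry, three biological replicates.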
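For solubility in G1/S (NP-40 vs SDS abundance) in this document: HeLa Kyoto cells arrested at G1/S by double thymidine block, proteins quantified by TMT10plex mass spectrometry in mild NP-40 versus SDS extracts, three biological replicates.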
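For thermal stability score vs G1/S (z-score of summed log2 fold changes over temperatures) in this document: synchronized HeLa Kyoto cells, proteins quantified by TMT10plex mass spectrometry, three biological replicates, mitosis taken 0.5 h after nocodazole release, G1/S directly after double thymidine block.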

Sequence | solubility in G1/S (log2) (HeLa Kyoto [1]) | melting temperature (HeLa Kyoto [2]; cell cycle stage: G1/S) | melting temperature (HeLa Kyoto [2]; cell cycle stage: mitosis) | solubility change mitosis (log2) (HeLa Kyoto [3]) | thermal stability score (HeLa Kyoto [4]; [5]) | thermal stability score (HeLa Kyoto [4]; cell cycle stage: mitosis)
MAAPKGSLWVRTQLGLPPLLLLTMALAGGSGTASAEAFDSVLGDTASCHRACQLTYPLHTYPKEEELYACQRGCRLFSICQFVDDGIDLNRTKLECESACTEAYSQSDEQYACHLGCQNQLPFAELRQEQLMSLMPKMHLLFPLTLVRSFWSDMMDSAQSFITSSWTFYLQADDGKIVIFQSKPEIQYAPHLEQEPTNLRESSLSKMSYLQMRNSQAHRNFLEDGESDGFLRCLSLNSGWILTTTLVLSVMVLLWICCATVATAVEQYVPSEKLSIYGDLEFMNEQKLNRYPASSLVVVRSKTEDHEEAGPLPTKVNLAHSEI [TMEM59] | 0.0662 | 54.8 °C | 53.1 °C | 0.0194 | 0.0515 | -0.215
MAAPMTPAARPEDYEAALNAALADVPELARLLEIDPYLKPYAVDFQRRYKQFSQILKNIGENEGGIDKFSRGYESFGVHRCADGGLYCKEWAPGAEGVFLTGDFNGWNPFSYPYKKLDYGKWELYIPPKQNKSVLVPHGSKLKVVITSKSGEILYRISPWAKYVVREGDNVNYDWIHWDPEHSYEFKHSRPKKPRSLRIYESHVGISSHEGKVASYKHFTCNVLPRIKGLGYNCIQLMAIMEHAYYASFGYQITSFFAASSRYGTPEELQELVDTAHSMGIIVLLDVVHSHASKNSADGLNMFDGTDSCYFHSGPRGTHDLWDSRLFAYSSWEILRFLLSNIRWWLEEYRFDGFRFDGVTSMLYHHHGVGQGFSGDYSEYFGLQVDEDALTYLMLANHLVHTLCPDSITIAEDVSGMPALCSPISQGGGGFDYRLAMAIPDKWIQLLKEFKDEDWNMGDIVYTLTNRRYLEKCIAYAESHDQALVGDKSLAFWLMDAEMYTNMSVLTPFTPVIDRGIQLHKMIRLITHGLGGEGYLNFMGNEFGHPEWLDFPRKGNNESYHYARRQFHLTDDDLLRYKFLNNFDRDMNRLEERYGWLAAPQAYVSEKHEGNKIIAFERAGLLFIFNFHPSKSYTDYRVGTALPGKFKIVLDSDAAEYGGHQRLDHSTDFFSEAFEHNGRPYSLLVYIPSRVALILQNVDLPN [GBE1] | -0.184 | 49.7 °C | 49.6 °C | -0.104 | -0.0259 | 0.998
MAAPQDVHVRICNQEIVKFDLEVKALIQDIRDCSGPLSALTELNTKVKEKFQQLRHRIQDLEQLAKEQDKESEKQLLLQEVENHKKQMLSNQASWRKANLTCKIAIDNLEKAELLQGGDLLRQRKTTKESLAQTSSTITESLMGISRMMAQQVQQSEEAMQSLVTSSRTILDANEEFKSMSGTIQLGRKLITKYNRRELTDKLLIFLALALFLATVLYIVKKRLFPFL [BNIP1] | -0.186 | 52.3 °C | 51.7 °C | -0.0998 | 1.09 | 0.444
MAAPRAGRGAGWSLRAWRALGGIRWGRRPRLTPDLRALLTSGTSDPRARVTYGTPSLWARLSVGVTEPRACLTSGTPGPRAQLTAVTPDTRTREASENSGTRSRAWLAVALGAGGAVLLLLWGGGRGPPAVLAAVPSPPPASPRSQYNFIADVVEKTAPAVVYIEILDRHPFLGREVPISNGSGFVVAADGLIVTNAHVVADRRRVRVRLLSGDTYEAVVTAVDPVADIATLRIQTKEPLPTLPLGRSADVRQGEFVVAMGSPFALQNTITSGIVSSAQRPARDLGLPQTNVEYIQTDAAIDFGNSGGPLVNLDGEVIGVNTMKVTAGISFAIPSDRLREFLHRGEKKNSSSGISGSQRRYIGVMMLTLSPSILAELQLREPSFPDVQHGVLIHKVILGSPAHRAGLRPGDVILAIGEQMVQNAEDVYEAVRTQSQLAVQIRRGRETLTLYVTPEVTE [HTRA2] | 0.168 | 56.9 °C | 56.5 °C | 0.028 | -2.4 | -3.14
MAAPRPPPARLSGVMVPAPIQDLEALRALTALFKEQRNRETAPRTIFQRVLDILKKSSHAVELACRDPSQVENLASSLQLITECFRCLRNACIECSVNQNSIRNLDTIGVAVDLILLFRELRVEQESLLTAFRCGLQFLGNIASRNEDSQSIVWVHAFPELFLSCLNHPDKKIVAYSSMILFTSLNHERMKELEENLNIAIDVIDAYQKHPESEWPFLIITDLFLKSPELVQAMFPKLNNQERVTLLDLMIAKITSDEPLTKDDIPVFLRHAELIASTFVDQCKTVLKLASEEPPDDEEALATIRLLDVLCEMTVNTELLGYLQVFPGLLERVIDLLRVIHVAGKETTNIFSNCGCVRAEGDISNVANGFKSHLIRLIGNLCYKNKDNQDKVNELDGIPLILDNCNISDSNPFLTQWVIYAIRNLTEDNSQNQDLIAKMEEQGLADASLLKKVGFEVEKKGEKLILKSTRDTPKP [ATXN10] | 0.202 | 51.9 °C | 51.1 °C | -0.135 | 0.984 | 1.43
MAAPSGGWNGVGASLWAALLLGAVALRPAEAVSEPTTVAFDVRPGGVVHSFSHNVGPGDKYTCMFTYASQGGTNEQWQMSLGTSEDHQHFTCTIWRPQGKSYLYFTQFKAEVRGAEIEYAMAYSKAAFERESDVPLKTEEFEVTKTAVAHRPGAFKAELSKLVIVAKASRTEL [MYDGF] | 0.19 | 57.7 °C | 57.7 °C | -0.192 | 2.14 | 0.789
MAAQRIRAANSNGLPRCKSEGTLIDLSEGFSETSFNDIKVPSPSALLVDNPTPFGNAKEVIAIKDYCPTNFTTLKFSKGDHLYVLDTSGGEWWYAHNTTEMGYIPSSYVQPLNYRNSTLSDSGMIDNLPDSPDEVAKELELLGGWTDDKKVPGRMYSNNPFWNGVQTNPFLNGNVPVMPSLDELNPKSTVDLLLFDAGTSSFTESSSATTNSTGNIFDELPVTNGLHAEPPVRRDNPFFRSKRSYSLSELSVLQAKSDAPTSSSFFTGLKSPAPEQFQSREDFRTAWLNHRKLARSCHDLDLLGQSPGWGQTQAVETNIVCKLDSSGGAVQLPDTSISIHVPEGHVAPGETQQISMKALLDPPLELNSDRSCSISPVLEVKLSNLEVKTSIILEMKVSAEIKNDLFSKSTVGLQCLRSDSKEGPYVSVPLNCSCGDTVQAQLHNLEPCMYVAVVAHGPSILYPSTVWDFINKKVTVGLYGPKHIHPSFKTVVTIFGHDCAPKTLLVSEVTRQAPNPAPVALQLWGKHQFVLSRPQDLKVCMFSNMTNYEVKASEQAKVVRGFQLKLGKVSRLIFPITSQNPNELSDFTLRVQVKDDQEAILTQFCVQTPQPPPKSAIKPSGQRRFLKKNEVGKIILSPFATTTKYPTFQDRPVSSLKFGKLLKTVVRQNKNHYLLEYKKGDGIALLSEERVRLRGQLWTKEWYIGYYQGRVGLVHTKNVLVVGRARPSLCSGPELSTSVLLEQILRPCKFLTYIYASVRTLLMENISSWRSFADALGYVNLPLTFFCRAELDSEPERVASVLEKLKEDCNNTENKERKSFQKELVMALLKMDCQGLVVRLIQDFVLLTTAVEVAQRWRELAEKLAKVSKQQMDAYESPHRDRNGVVDSEAMWKPAYDFLLTWSHQIGDSYRDVIQELHLGLDKMKNPITKRWKHLTGTLILVNSLDVLRAAAFSPADQDDFVI [SH3BP4] | -0.0978 | 50.4 °C | 49.2 °C | -0.133 | 0.727 | 0.411
MAAQSAPKVVLKSTTKMSLNERFTNMLKNKQPTPVNIRASMQQQQQLASARNRRLAQQMENRPSVQAALKLKQSLKQRLGKSNIQARLGRPIGALARGAIGGRGLPIIQRGLPRGGLRGGRATRTLLRGGMSLRGQNLLRGGRAVAPRMGLRRGGVRGRGGPGRGGLGRGAMGRGGIGGRGRGMIGRGRGGFGGRGRGRGRGRGALARPVLTKEQLDNQLDAYMSKTKGHLDAELDAYMAQTDPETND [CHTOP] | -0.246 | 51 °C | 51.7 °C | 0.761 | -2.91 | -0.126
